Experimental findings from US20210188971A1 are described below.

The target in this assay is TSHR on engineered CHO cells (UniProt P16473). Description: flow cytometry on CHO cells engineered with TSHR, detected with anti-human IgG1 Fc-Alexa Fluor 488.

B1: M22 Fabs (control of Example 16) (Fab, V domains shown)
VH: QVQLVQSGAEVKKPGESLKISCRGSGYRFTSYWINWVRQLPGKGLEWMGRIDPTDSYTNYSPSFKGHVTVSADKSINTAYLQWSSLKASDTGMYYCARLEPGYSSTWSVNWGQGTLVTVSS
VL: LTVLTQPPSVSGAPRQRVTISCSGNSSNIGNNAVNWYQQLPGKAPKLLIYYDDQLPSGVSDRFSGSRSGTSASLAIRGLQSEDEADYYCTSWDDSLDSQLFGGGTRLTVL
B1 registered a concentration at which fluorescence intensity peaked of 30 µg/mL.
